B1: LT-α: rat-recombinant lymphotoxin-α microinjected into the striatum (protein, UniProt Q06332 34-202, looked up)
Lymphotoxin-alpha: LSGVRFSASRTAHQPPQKHLTHGLLKPAAHLVGYPSKQNSLLWRANTDRAFLRHGFSLNNNSLLIPTSGLYFVYSQVVFSGESCSPRAIPTPIYLAHEVQLFSSQYPFHVPLLSAQKSVYPGLQGPWVRSMYQGAVFLLSKGDQLSTHTDGISHLHFSPSTVFFGAFAL
B2: IL-1β: rat-recombinant interleukin-1β microinjected into the striatum (protein, UniProt Q63264 117-268, looked up)
Interleukin-1 beta: VPIRQLHCRLRDEQQKCLVLSDPCELKALHLNGQNISQQVVFSMSFVQGETSNDKIPVALGLKGLNLYLSCVMKDGTPTLQLESVDPKQYPKKKMEKRFVFNKIEVKTKVEFESAQFPNWYISTSQAEHRPVFLGNSNGRDIVDFTMEPVSS

Test system: platelet adhesion to brain endothelium
Assay: Platelet and leukocyte immunohistochemistry after intrastriatal cytokine microinjection (rat)
Assay type: in vivo
Settings: versus vehicle, TNF at 24 h
Description: Rat-recombinant TNF and IL-1[…] were obtained from the National Institute for Biological Standards and Controls (NIBSC, Potters Bar, UK). Rat-recombinant LT-[…] and mouse-recombinant TNF was purchased from R&D Systems (Abingdon, UK). The cytokines were dissolved in endotoxin-free saline (vehicle). The cytokines contained a maximum of 100 IU endotoxin/mg cytokine (corresponding to 10 ppm by weight), which, in view of previous studies, was considered negligible in the context of these experiments.
12-week-old male Wistar rats or 8-week-old NMRI mice were used for the injection of the recombinant cytokines (Charles River, Margate, UK). Both rats and mice responded to the injection of cytokines in an identical manner. […]
Frozen, 10 μm-thick serial coronal sections were cut from tissue blocks. […] The numbers of positive cells present in the brain were quantitated. For each tissue section, 4 representative fields were chosen and the average number of positive cells was calculated and expressed as number of cells per mm^2.
The p55 mouse anti-rat platelet GPIIa monoclonal antibody was a kind gift from Kirin Brewery Co Ltd, Takasaki, Japan. The numbers of platelet positive elements present in the brain were quantitated. For each tissue section, 6 representative fields were chosen and the average number of positive elements was calculated and expressed as number of discrete elements per mm^2.

Row | Molecule | number of platelet positive elements
1 | B1 | did not increase
2 | B2 | did not increase
